Source: article PMC8217500, “Sequence signatures of two public antibody clonotypes that bind SARS-CoV-2 receptor binding domain” (Nature Communications, 2021)

Experiments:
[1] = molecular target: T1, Fc-tagged SARS-CoV-2 receptor-binding domain (RBD), wild type (SARS-CoV-2, Wuhan-Hu-1 (QHD43416.1), UniProt P0DTC2); test: BLI; Fc-tagged RBD (20 ug/ml) loaded on anti-hIgG Fc Capture (AHC) biosensors, Fab in solution at four to five concentrations; Octet Red96e, room temperature, 1x kinetics buffer (1x PBS pH 7.4, 0.01% w/v BSA, 0.002% v/v Tween 20); 1:1 binding model; conditions: both partners purified
T1 construct: also called SARS-CoV-2 RBD; WT RBD; not shown: Fc, C-terminal, kept

[2] = molecular target: T2, Fc-tagged SARS-CoV-2 spike receptor-binding domain (RBD) (SARS-CoV-2, Wuhan-Hu-1 (QHD43416.1), UniProt P0DTC2); test: BLI; Fc-tagged RBD (20 ug/ml) loaded on anti-hIgG Fc Capture (AHC) biosensors, Fab in solution; room temperature; 1x PBS pH 7.4, 0.01% BSA, 0.002% Tween 20; 1:1 binding model; conditions: both partners purified
T2 construct: also called SARS-CoV-2 RBD; Fc-tagged RBD; source: Expi293F, transiently transfected, purified (KanCapA protein A resin); not shown: Fc (after an SSSSG linker), C-terminal, kept

Binder | Kd [1] | Kd [2]
COVA2-20 Y58F Fab (Fab, V domains shown) VH: EVQLVESGGGLIQPGGSLRLSCAASGFTVSSNYMSWVRQAPGKGLEWVSVIYSGGSTFYADSVKGRFTISRDNSKNTLYLQMNSLRAEDTAVYYCASPLLLTPPDYYYYMDVWGKGTMVTVSS VL: DVVMTQSPSSLSVSVGDRVTITCRASQGIRNDLGWYQQKPGKAPKRLIYAASSLQSGVPSRFSGSGSGTEFTLTISSLQPEDFATYYCLQHNSYLWTFGQGTKLEIK | 286 ± 17 nM | –
COVA2-20 Fab, F58 variant (heavy chain Y58F) (Fab, V domains shown, also called COVA2-20 F58) VH: EVQLVESGGGLIQPGGSLRLSCAASGFTVSSNYMSWVRQAPGKGLEWVSVIYSGGSTFYADSVKGRFTISRDNSKNTLYLQMNSLRAEDTAVYYCASPLLLTPPDYYYYMDVWGKGTMVTVSS VL: DVVMTQSPSSLSVSVGDRVTITCRASQGIRNDLGWYQQKPGKAPKRLIYAASSLQSGVPSRFSGSGSGTEFTLTISSLQPEDFATYYCLQHNSYLWTFGQGTKLEIK | – | 286 nM
COV107-23 F58Y Fab (Fab, V domains shown) VH: EVQLVESGGGLIQPGGSLRLSCAASGFTVSSNYMSWVRQAPGKGLEWVSVIYSGGSTYYADSVKGRFTISRDNSKNTLYLQMNSLRAEDTAVYYCARDLGTGLFDYWGQGTLVTVSS VL: DIQLTQSPSFLSASVGDRVTITCRASQGISSYLAWYQQKPGKAPKLLIYAASTLQSGVPSRFSGSGSGTEFTLTISSLQPEDFATYYCQQLDSYPPGTFGPGTKVDIK | 362 ± 18 nM | –
CC12.3 Fab, Y58 variant (heavy chain F58Y) (Fab, V domains shown, also called CC12.3 Y58) VH: QVQLVESGGGLIQPGGSLRLSCAASGFTVSSNYMSWVRQAPGKGLEWVSVIYSGGSTYYADSVKGRFTISRDNSKSTLYLQMNSLRVEDTAVYYCARDFGDFYFDYWGQGTLVTVSS VL: not shown | – | 97 nM
CC12.3 F58Y Fab (Fab, V domains shown) VH: QVQLVESGGGLIQPGGSLRLSCAASGFTVSSNYMSWVRQAPGKGLEWVSVIYSGGSTYYADSVKGRFTISRDNSKSTLYLQMNSLRVEDTAVYYCARDFGDFYFDYWGQGTLVTVSS VL: not shown | 97 ± 2 nM | –
